experiment: yeast display, Sf9 membrane polyspecificity reagent, FACS + sequencing; frameworks hold sequencing errors
Summary of the method: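 A synthetic nanobody library was expressed on Saccharomyces cerevisiae BJ5465 by galactose induction for 36–48 hours. The library was stained for 1 hour at 4 °C with 10% biotinylated, detergent-solubilized Sf9 membrane reagent and enriched with streptavidin microbeads before FACS. Low and high (top ~1%) gates were set on anti-HA fluorescence for expression and streptavidin fluorescence for reagent binding, and each polyreactivity label reflects the gate of origin.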

| Sequence | polyreactivity (PSR sort gate) |
| --- | --- |
| QVQLVESGVGLVQAGGSLRLSCAASGRTFPYNAMGWYRQAPGKERELVAVISSSGGSTYYADSVKGRFTISRDNAKNTVYLQMNSLKPEDTAVYYCNTRPYFYRRPGYRYSGYDYWGLGTQVTVSS | high polyreactivity |
| QVQLVESGVGLVQAGGSLRLSCAASGRTFYKNAMGWSRQSPGKERELVAAISRRGGTTYYADSVKGRFTISRDNAKNTVYLQLNSPKPEDTAVYYCAVTRLGPTIGFYYWGQGTQVTVSS | high polyreactivity |
| QVQLVESGVGLVQAGGSLRLSCAASGRTFYVYAMGWNIQAPGKERELVAAISWGRGSTYYADSVKGRFTNSRDYAKNTVYLQMNSLQPEDTAVYYCADDKTRYRLGRDYWGQGTQVTVSS | low polyreactivity |
| QVQLVESGVGLVQAGGSLRLSCAASGSIFATNDMGWYRQAPGKERELVASISSGGGSTYYADSVKGRFTISRDNAKNTVYFQMNSLKPEDTAVYYCAADRGDTYTTDYDYWGQGTQVTLSS | low polyreactivity |
| QVQLVESGVGLVQAGGSLRLSCAASGSIFHINAMGWSRQAPGKERELEADISQRGGSTYYADSVKGRFTISRDNAKNTVYLQMNSLKPEDTAVYFCAVVHVFYAVSYFSFYTYDYWGQGTQVTLSS | low polyreactivity |
| QVQLVESGVGLVQAGGSLRLSCAASGSIFQDNAMGWYRQAPGKERELVAAISSGDSTYYADSVKGRFTISRDNAKNTVYLQMNSLKPEDTAVYYCAKVPSRWSRQDKAQFDYWGQGTQVTVSS | low polyreactivity |
| QVQLVESGVGLVQAGGSLRLSCAASGSIFYDNAMGWYRQAPGKERELVAVITVSGDSTYYADSVKGRFTISRDNAKNTVYLQMNSLKPEDTAVYYCNTDAISGSHFWRYITFGYLDDYWGQGTQVTVSS | low polyreactivity |
| QVQLVESGVGLVQAGGSLRLSCAASGSIFYSNAMGRYRQAPGKERELVASIRGSGVSTYYADSVKGRFTISRDNAKNTVYLQMNRLKPEDTAVYYCAARYGRSYFGYYYWGQGTQVTVSS | high polyreactivity |
| QVQLVESGVGLVQAGGSLRLSCAASGSIFYVYAMGWYRQAPGKERELVAAITNYADSVKGRFTISRDNAKNTVYLQMNSLKPEDTAVYYCAADWWRVEMDYWGQGTQVTVSS | low polyreactivity |
| QVQLVESGVGLVQAGGSLRLSCAASGSTFGTYDMGWFRQAPGKERELVAAITWIGDTTYYADSVKGRFTISRDNAKNTVYLQMNSLIPEDTAVYYCAAEPNYQYYGPLGYDYWGQGTQVTVSS | low polyreactivity |
| QVQLVESGVGLVQAGGSLRLSCAASGSTFKYYGMGWYRQAPGKERELVASISSSGTRTYYADSVKGRFTISSDNAKNTVYLQMNSLKPEDTAVYYCAADSYATYFLYDSWGQGTQVSVSS | low polyreactivity |
| QVQLVESGVGLVQAGGSLRLSCAASGSTFNYYAMGWYRQAPGKERELVAAISSRSSRTFYADSVKGRFTISRDNAKNTVYLQMHSVKPEDTAVYYCAVKKSAPDGDYWGQGTQVTVSS | high polyreactivity |
| QVQLVESGVGLVQAGGSLRLSCAASGSTFRSNALGWYRQAPGKEREVVAGISSGGGTYYADSVKGRFTISRDNAKNTVYLQMNSLKPEDTAVYYCAKVVYFGWSVQYYYWGQGTQVTVSS | low polyreactivity |
| QVQLVESGVGLVQAGGSLRLSCAASGSTLFVYAMGRYRQAPGKERELVAAISRGGSTYYADSVKGRFTISRDNAKNTVYLQMNSLKPEDTAVYYCAAVGGYPRYGYWGQGTQVTVSS | high polyreactivity |
| QVQLVESGVGLVQAGGSLRLSCAASGSTLFVYTKGWSRQAPGKERELVAAITSSGGSTYYADSVKGRFTISRDKAKNTVYLQMNSLKAQDTAVYYCAAKELGSPYDYWGQGTQVTVSS | high polyreactivity |
| QVQLVESGVGLVQAGGSLRLSCAASGTTIVSYAMGWYRQAPGKEMEFVATISISGTSTYYADSVKGRFTISRDNAKNTVYLQMNSLKPEDTAVYYCAARLRPRGATQFYRYDYWGQGTQVTVSS | high polyreactivity |
| QVQLVESGVGLVQAGGSLRLSCAASGYTIDWYTMGWYRQAPGKERELVAAISASGVRTYYADSVKGRFTISRDNAKNTVYLQMNSLKPEDTGVYYCNRVYSTSRITQYEFDYWGQGTQVTLSS | low polyreactivity |
| QVQLVESGVGLVQAGGSLRLSCAASGYTLDNYAMGWYRQAPGKERELVAGITFSGGSTFYADSVKGRFTISRDNAKNTVYLQMNSLKPEDTAVYYCAADAEFQADHKYGYWGQGTQVTVSS | low polyreactivity |
| QVQLVESGVGLVQAGGSLRLSCAPSGRIFGTYAMVWYRQAPGKERELVASITDRGDSTYADSVKGRFTISRDNAKNTVYLQMNSLKPEDTAVYYCAADGWWHNFYPGTGLDYWGQGTQVTVSS | low polyreactivity |
| QVQLVESGVGLVQAGGSLSITCAASGRTFAGNSMGSYRQAPGKERELVAAISQGGGSTYYADSVKGRFTISRDNAKNTVYLQMNSRKAEDTAVYYCAAEIPRRWASFATQWYDYWGLGTQVTVSS | low polyreactivity |
| QVQLVESGVGLVQAGGSVRLSCAASGFTFGYYAMGWYRQAPGKERELVASISSVDNTYYADSVKGRFTISRDNAKNTVYLQMNSLKPEDTAVYYCAARYRDYFVRGGYWGQGTQVTVSS | high polyreactivity |
| QVQLVESGVGLVQAGGSVRLSCAASGSIFSINAMGWYRQAPGKERELVAAISASGGSTYYADSVKGRFTISRDNAKNTVYLQMNSLKPEDTAVYYCAVYTHDRFSRYDQGDYWGQATQVTVSS | low polyreactivity |

| Sequence | polyreactivity (PSR sort gate) |
| --- | --- |
| QVQLVESGVGLVQAGGTLRISCAASGSTLPGYAMGWYRPAPGKERELVAAITSRGGTTYYADSVKGRFTISRDNAKNTVYLQMNSLKPEDTAVYYCAAEVYYRSRVYPYYYSYDYWGQGTQVTVSS | high polyreactivity |
| QVQLVESGVGLVQAGGTLRLSCAASGIIISRYTMGWYRQAPGKERELVAAITSSGITYYADSVKGRFTISRDNAKNTVYLQLNSLKPEDTAVYYCARETYGDYVHYDYWGLGTQVTVSS | low polyreactivity |
| QVQLVESGVGLVQAGRRLRLSCAASGFIFAWNGMGWYRKAPGKERELVAAISWSGGSTYYAVSVKGRFTISRDNEKNTVYLLMNTLKPEETAVYYCYRSWGSRPGSRLEYWGQGTQVTVSS | high polyreactivity |
| QVQLVESGVGLVQAGRSLRLSCAASGRTFVQYAMGWYRQAPGKERELVARISRRGGSTYYADSVKGRFTISRDKAKNSVYLQMNSLKPEDTAVYYFAADAYPYWYDYWGQGTQVTVSS | high polyreactivity |
| QVQLVESGVGLVQAGVILRLSCAASGRTFRRNAMGWYRHAPGKERELVAAISWRGGSTYYADSVKGRFTISRDNAKNTVYLQLNSMKPEDTAVYYFAAGFESYDYWGQGTQVTVSS | high polyreactivity |
| QVQLVESGVRLLQAGGSLRLSCAASGITSDDNTMGWYRQAPGKERELVARIRRTGGGTYYADSVKGRFTISRDNAKNTVYLQINSLKPEDSAVYYCAAVPSWGYRFNRVPYLWVDYWGQGTQVTVSS | low polyreactivity |
| QVQLVESGVRLVQAGGSLLLSCAASGFTFHKNDMGWYRQAPGKERELVATISKSGGSTYYADSVKGRFTISRDNAMNTVYLQMNSLKPEDTAVYYCARRYRDYGRYGYWGQGTQVTVSS | high polyreactivity |
| QVQLVESGVRLVQAGGSLRLSCAASGSIFAKYTMGWYRPAPGKERELVAAITRSGTSTRYADSVKGRFTISRDNAKNTVYLQLNSLKPEDTAVYYCAASLYSWGQGTQVTVSS | high polyreactivity |
| QVQLVESGVVLVQAGGSLRLSCAASGRIFRYYVMGWYRQAPGKERELVAAITNDGGNTNYADSVKGRFTISRDNEKNTVYLQMNSLKPEDTAVYYCNADRTHDRNPYTYATFDYWGQGTQVTVSS | low polyreactivity |
| QVQLVESLGGLVQAGGRLRLSSAASGLIFPRNAMGWYRQAPGKERELVAVISRSGTTTYYADSVKGRFTISRDNAKKTVYFQMNSLIPEDTAVYYCASAPSHVYRARFYYWGQGTQVTVSS | high polyreactivity |
| QVQLVESRGCLVQAGGSLRLSCSASGYIFVYYAMGWYRQAPGKEWELVAAISRGGSTYYADSVKGRFTISRDNAKNTVYLQMNSLKPEDTAVYYCNKVLPYGREYGYCGQGTQVTVSS | high polyreactivity |
| QVQLVESRGGIVQAGGSLRLSCAASGRIFGWYAMGWYRQAPGKERELVAAITSSVGRTYYADSVKGRFTISRDNAKNTVYLQMNSLKPEDTAVYYCAKDLYTYYYFEYDYWGQGTQVTVSS | low polyreactivity |
| QVQLVESRGGLVLAGGSLRLSCAASGSIFPSYAMGWYRQAPGKERELVASISYRGGSTYYADSVKGRFTISRDNAKNTVYLQMNSLKPEDTAVYYCAATKERYYGWSRLTGYYRGNYWGQGTQVTVSS | high polyreactivity |
| QVQLVESRGGLVPAGGSLRLSCAASGSTVRDYTMGRYRQAPGKEREVGAAITRRSASTYYADSVKGRFTISRDNAKNTVYLQLNSLKPEDTAVYYCAVRTNGPFEYWGQGTQVTVSS | high polyreactivity |
| QVQLVESRGGLVQAGGSLGLSCAASGSTFGYYAMGWYRQAPGKERELVAGISTGGSTYYAYSVKGRFTISRDNAKNTVYFQINSLKPDDTAVYYCAATRYNRWPIKFDYWGQGTQVTVSS | high polyreactivity |
| QVQLVESRGGLVQAGGSLRLSCAASGFIFTRYVMGWYRQAPGKERELVAGISTRGARTYYADSVKGRFTISRDNAKNTVYLQIHSLTPEDTAVYYCNKDWSRGWNYEYDYWGQGTQVTVSS | high polyreactivity |
| QVQLVESRGGLVQAGGSLRLSCAASGFILVIYAMGWYRQAPRKERELVAAITSDGSTNYADSVKGRFTISRDNAKNSVYLQMNSLKPEDTAVYYCAADAVNPLDYWGLGTQVTVSS | low polyreactivity |
| QVQLVESRGGLVQAGGSLRLSCAASGFTFGNYAMGWYRQAPGKEREMVAAISWSGGSTYNADSVKGRFTISRDNAKKTVYLQMNSLKPEDTAVYYCNAIRGSLWESDYWGQGTQVTVSS | high polyreactivity |
| QVQLVESRGGLVQAGGSLRLSCAASGLIFLHNAMGWYRQAPGKERELVAAIRDGDSTNYADSVKGRFTISRDNAKNTVYLQMNSLKPEDTAVYYCAKDPTLVAYAPGRYDYWGQGTQVTVSS | low polyreactivity |
| QVQLVESRGGLVQAGGSLRLSCAASGLNFSYYAMGWYRQAPGKERELVAAIDWNSGSTYYADSVKGRFTISRDNAKNTVYLQMNSLKPEDTAVYYCAAYGSFWYARFGYWGQGTQVTVSS | low polyreactivity |
| QVQLVESRGGLVQAGGSLRLSCAASGRIFAYYAKGWYRPAPGKERELVAAIRGSGGSTYYAESVKGRFTISRDNAKNTVYLQMNSLKPEDTAVYYCAARTQPKKFYYWGQGTQVTVSS | high polyreactivity |

Reference: the nanobody polyreactivity screen of Harvey et al. (2022)
